Laboratory results published in paper PMC6259754.
Where “and” joins values, the source holds several entries; their conditions need not be identical. Equal values may be shown once.

Tests used:
[1] = target: Phaseolus acutifolius agglutinin (lectin from white tepary bean, Phaseolus acutifolius variety latifolius) (Phaseolus acutifolius)
[2] = target: Phaseolus acutifolius agglutinin (lectin from white tepary bean, Phaseolus acutifolius variety latifolius) (Phaseolus acutifolius); test: native gel or EMSA
[3] = target: Phaseolus acutifolius agglutinin (lectin from white tepary bean, Phaseolus acutifolius variety latifolius) (Phaseolus acutifolius); test: SEC
[4] = target: Phaseolus acutifolius agglutinin (lectin from white tepary bean, Phaseolus acutifolius variety latifolius) (Phaseolus acutifolius); test: SEC; TSK 3000 SW HPLC column in PBS, 0.5 mL/min, 0.1 mg pure lectin; data not shown

## Ovoalbumin (from UniProt P01012 1-386) (natural protein)
[1]
  Inhibitory concentration (lowest concentration giving complete inhibition) of hemagglutination of trypsinized human A erythrocytes by PAA: 1.3 mg/mL
  Inhibitory concentration (lowest concentration giving complete inhibition) of hemagglutination of trypsinized human O erythrocytes by PAA: 1.3 mg/mL

## Phaseolus acutifolius agglutinin (lectin from white tepary bean, Phaseolus acutifolius variety latifolius) (natural protein)
[2]
  stoichiometry N: > 4
[3]
  stoichiometry N: 4 and 2
[4]
  stoichiometry N: 2

## Porcine thyroglobulin (from UniProt F1RRV3 20-2692) (natural protein)
[1]
  Inhibitory concentration (lowest concentration giving complete inhibition) of hemagglutination of trypsinized human A erythrocytes by PAA: 0.0048 mg/mL
  Inhibitory concentration (lowest concentration giving complete inhibition) of hemagglutination of trypsinized human O erythrocytes by PAA: 0.0048 mg/mL

## Recombinant soluble human β-1,6-N-acetylglucosaminyltransferase V (from UniProt Q09328 1-741) (enzyme)
[1]
  Inhibitory concentration (lowest concentration giving complete inhibition) of hemagglutination of trypsinized human A erythrocytes by PAA: 0.0273 mg/mL
  Inhibitory concentration (lowest concentration giving complete inhibition) of hemagglutination of trypsinized human O erythrocytes by PAA: 0.0017 mg/mL

B1: Bovine fibrinogen (complex)
chain 1: GPRLVERQQSACKETGWPFCSDEDWNTKCPSGCRMKGLIDEVDQDFTSRINKLRDSLFNYQKNSKDSNTLTKNIVELMRGDFAKANNNDNTFKQISEDLRSRIEILRRKVIEQVQRIKVLQKNVRDQLVDMKRLEVDIDIKIRSCKGSCSRALEHKVDLEDYKNQQKQLEQVIAINLLPSRDIQYLPLIKMSTITGPVPREFKSQLQEAPLEWKALLEMQQTKMVLETFGGDGHARGDSVSQGTGLAPGSPRKPGTSSIGNVNPGSYGPGSSGTWNPGRPEPGSAGTWNPGRPEPGSAGTWNPGRPEPGSAGTWNPGRPEPGSAGTWNPGRPEPGSAGTWNTGSSGSSSFRPDSSGHGNIRPSSPDWGTFREEGSVSSGTKQEFHTGKLVTTKGDKELLIDNEKVTSGHTTTTRRSCSKVITKTVTNADGRTETTKEVVKSEDGSDCGDADFDWHHTFPSRGNLDDFFHRDKDDFFTRSSHEFDGRTGLAPEFAALGESGSSSSKTSTHSKQFVSSSTTVNRGGSAIESKHFKMEDEAESLEDLGFKGAHGTQKGHTKARPARGIHTSPLGEPSLTP
chain 2: GHRPYDKKKEEAPSLRPVPPPISGGGYRARPATATVGQKKVERKPPDADGCLHADPDLGVLCPTGCKLQDTLVRQERPIRKSIEDLRNTVDSVSRTSSSTFQYITLLKNMWKGRQNQVQDNENVVNEYSSHLEKHQLYIDETVKNNIPTKLRVLRSILENLRSKIQKLESDVSTQMEYCRTPCTVTCNIPVVSGKECEKIIRNEGETSEMYLIQPEDSSKPYRVYCDMKTEKGGWTVIQNRQDGSVDFGRKWDPYKQGFGNIATNAEGKKYCGVPGEYWLGNDRISQLTNMGPTKLLIEMEDWKGDKVTALYEGFTVQNEANKYQLSVSKYKGTAGNALIEGASQLVGENRTMTIHNSMFFSTYDRDNDGWKTTDPRKQCSKEDGGGWWYNRCHAANPNGRYYWGGAYTWDMAKHGTDDGVVWMNWQGSWYSMKKMSMKIRPYFPEQ
chain 3: YVATRDNCCILDERFGSYCPTTCGIADFLNNYQTSVDKDLRTLEGILYQVENKTSEARELVKAIQISYNPDQPSKPNNIESATKNSKSMMEEIMKYETLISTHESTIRFLQEVYNSNSQKIVNLRDKVVQLEANCQEPCQDTVKIHDVTGRDCQDVANKGAKESGLYFIRPLKAKQFLVYCEIDGSGNGWTVFQKRLDGSLDFKKNWIQYKEGFGHLSPTGTGNTEFWLGNEKIHLISTQSSIPYVLRIQLEDWNGRTSTADYASFKVTGENDKYRLTYAYFIGGDAGDAFDGYDFGDDSSDKFFTSHNGMQFSTWDSDNDKYDGNCAEQVGIGWWMNKCHAGHLNGVYYQGGTYSKTSTPNGYDNGIIWATWKSRWYSMKKTTMKIIPLNRLAIGEGQQHQLGGAKQVGVEHHVEIEYD
[1]
  Inhibitory concentration (lowest concentration giving complete inhibition) of hemagglutination of trypsinized human A erythrocytes by PAA: 0.0391 mg/mL
  Inhibitory concentration (lowest concentration giving complete inhibition) of hemagglutination of trypsinized human O erythrocytes by PAA: 0.0098 mg/mL

B2: Bovine fetuin (natural protein)
chain: IPLDPVAGYKEPACDDPDTEQAALAAVDYINKHLPRGYKHTLNQIDSVKVWPRRPTGEVYDIEIDTLETTCHVLDPTPLANCSVRQQTQHAVEGDCDIHVLKQDGQFSVLFTKCDSSPDSAEDVRKLCPDCPLLAPLNDSRVVHAVEVALATFNAESNGSYLQLVEISRAQFVPLPVSVSVEFAVAATDCIAKEVVDPTKCNLLAEKQYGFCKGSVIQKALGGEDVRVTCTLFQTQPVIPQPQPDGAEAEAPSAVPDAAGPTPSAAGPPVASVVVGPSVVAVPLPLHRAHYDLRHTFSGVASVESSSGEAFHVGKTPIVGQPSIPGGPVRLCPGRIRYFKI
modifications: glycoprotein with N-linked biantennary and triantennary complex oligosaccharides (sites not given)
[1]
  Inhibitory concentration (lowest concentration giving complete inhibition) of hemagglutination of trypsinized human A erythrocytes by PAA: 0.156 mg/mL
  Inhibitory concentration (lowest concentration giving complete inhibition) of hemagglutination of trypsinized human O erythrocytes by PAA: 0.0781 mg/mL
